These results are taken from US20160038561A1 (SYNG PHARMACEUTICALS, published 2016).

This test has as its target T1, Synuclein-gamma (SNCG) (UniProt O76070 1-127).
T1 construct: Intracellular protein in MCF7-SNCG cells; also called γ-synuclein; gamma synuclein
Briefly: co-immunoprecipitation with anti-SNCG antibody from treated MCF7-SNCG cell lysates, western blot with anti-FITC antibody. In general terms: A western blot detects proteins with antibodies after separation by electrophoresis.

No end group written: not given here. *: point of attachment. FITC = O=C1OC2(c3ccc(O)cc3Oc3cc(O)ccc32)c2ccc(NC(=S)*)cc21

T1 sequence (O76070 whole entry): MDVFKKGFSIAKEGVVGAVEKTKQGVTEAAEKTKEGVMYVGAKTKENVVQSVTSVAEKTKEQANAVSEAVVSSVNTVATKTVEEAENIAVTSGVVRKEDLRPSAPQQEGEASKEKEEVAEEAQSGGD

B1: FITC tagged GYGRKKRRQRRR (TAT) alone (peptide)
peptide: {FITC}-GYGRKKRRQRRR
notes: Control peptide in the co-immunoprecipitation; also called TAT CTL; control peptide
With B1, the binding result is “no binding”.
